B1: HDV Ribozyme (parent)
chain: GGCCGGCAUGGUCCCAGCCUCCUCGCUGGCGCCGGCUGGGCAACAUUCCGAGGGGACCGUCCCCUCGGUAAUGGCGAAUGGGACCCA

Variants of B1 are the subject of this data set. The data set can be described thus: self-cleavage, relative activity (ratio to wild type); higher = more cleavage; co-transcriptional.
Turning to G25U G73U, the self-cleavage was determined as 0.117.

For the variant C22G C75G, the self-cleavage is 0.181. A83U C86U: the self-cleavage was found to be 0.95.

Turning to G10A G39C, the self-cleavage stood at 0.182. The same measure for C3U G50C: 0.686. Take C18G U23G: the self-cleavage is 0. Regarding U23C C26G, the self-cleavage is 1.05. With A16C U23C, the self-cleavage was 0.87. Regarding G6U C22A, the self-cleavage was 0.0489. As for G10U G54C, the self-cleavage worked out at 0.831. For the variant U27G C84G, the self-cleavage was 0.378.

For G17C G80U, the self-cleavage turned out to be 0.0588. Consider C30G G73A, for which the self-cleavage amounted to 0.0455. G29A U72G: the self-cleavage stood at 0.0923. Regarding C44G G74C, the self-cleavage is 0.185. Consider G38A C63U, for which the self-cleavage was found to be 0.0923. Turning to C48A G76U, the self-cleavage came to 1.03. Consider C14G C84G, for which the self-cleavage turned out to be 0.128. As to C26G A45U, the self-cleavage worked out at 0.895.

For the variant G10U C84A, the self-cleavage came out at 0.519. Regarding G6C C48U, the self-cleavage is 0.277. With G53C A56G, the self-cleavage was 0.962.

For the variant A8U A71C, the self-cleavage is 0.703. For the variant A16U G76A, the self-cleavage was determined as 0.939. For C21A G73U, the self-cleavage was found to be 0.0528. With G52A G54C, the self-cleavage amounted to 0.842. The same measure for G17C G67A: 0.249; for C18G G38C: 0; for C21U G31U: 0.173. With G38C A71U, the self-cleavage came to 0.0449. With C30A U72G, the self-cleavage is 0.185. Consider G35A A42U, for which the self-cleavage was 0.166.

As for C15A G28A, the self-cleavage came to 0.136.

For the variant G59A A77C, the self-cleavage is 0.475. With C48A C86G the figure was 1.04; with C24A C62G, 0.554. Turning to C36G G59C, the self-cleavage is 0.0755. For U60C G81A, the self-cleavage is 0.604. The same measure for G5A G31U: 0.0332; for G29A C33U: 0.111; for C7U A83U: 0.0852.

Turning to G6U G10U, the self-cleavage was 0.0791.

Regarding G28C G76A, the self-cleavage was determined as 0.106.

Regarding G11U G73A, the self-cleavage worked out at 0.138.

Regarding C41A C66A, the self-cleavage was 0.804. With G1C C3A the figure was 0.234. The same measure for A56G G68C: 1.01. On to U27A G74U, for which the self-cleavage was 0.427. As to G2A C63A, the self-cleavage came to 0.198. For G6U G29U, the self-cleavage was determined as 0.104. The same measure for U23A C57A: 1.09. Regarding U9C G67C, the self-cleavage turned out to be 0.703. For the variant U23C U47G, the self-cleavage was 1.28. For the variant U9G U37G, the self-cleavage amounted to 0.111. Take C62G G68U: the self-cleavage was found to be 0.425. For C14A C66A, the self-cleavage is 0.578. With C22U A51C the figure was 0.928; with C13G C33G, 0.0462; with C64A G73A, 0.385. With C26A G74C the figure was 0.237. For the variant U9C G11A, the self-cleavage is 0.0755. With G35A U65A the figure was 0.61; with G40A A87U, 1.02; with G50C C66A, 0.812. With G82A the figure was 0.418; with G10A A77U, 0.169.

Regarding A51U U60C, the self-cleavage was 0.594. With A56G G81U, the self-cleavage was determined as 0.332. As to A43G G55U, the self-cleavage turned out to be 0.378. Turning to C30G C75G, the self-cleavage was 0.0997.

On to C3A A78C, for which the self-cleavage is 0.0785. Take G11A C13G: the self-cleavage was determined as 0.032.

In the case of U69G C86U, the self-cleavage worked out at 0.723. Turning to G39C G82A, the self-cleavage was 0.0308. The same measure for G25C U37C: 0.0554; for C48U A77U: 0.356. Turning to C36A U72A, the self-cleavage was 0.277. Turning to C64U G80C, the self-cleavage was 0.158. In the case of C19G C48U, the self-cleavage was found to be 0.0733. Turning to C49U U60G, the self-cleavage is 0.939. Turning to G25C G28U, the self-cleavage came to 0.119. With G5U G28C, the self-cleavage worked out at 0.0554. Turning to A16G C66U, the self-cleavage came to 0.988. For the variant C14U C32A, the self-cleavage amounted to 0.101. Take C32A A77G: the self-cleavage turned out to be 0.0426. With C4A G81A the figure was 0.0468; with U27C C57A, 0.692; with C3A C22G, 0.0631. In the case of G6U G80C, the self-cleavage came to 0.0898. On to C22U G39U, for which the self-cleavage was found to be 0.163. On to A43U C57U, for which the self-cleavage was determined as 0.631.

Take C18A U23C: the self-cleavage was 0. As for C36A A70U, the self-cleavage was 0.163. With G81C C84A the figure was 0.26; with C18G U79C, 0.0639; with G39C C49G, 0.219.

On to A56U C62G, for which the self-cleavage worked out at 0.601.

On to C4A A8G, for which the self-cleavage stood at 0.192.

Take G2A G67U: the self-cleavage is 0.157. In the case of C36U U47A, the self-cleavage came to 0.481. As for G2U G82U, the self-cleavage was determined as 0.0171. As for C3A G38U, the self-cleavage is 0.0471. For C41A G81A, the self-cleavage stood at 0.242. A78C C86U: the self-cleavage turned out to be 0.225. In the case of C30U C86U, the self-cleavage amounted to 0.795. The same measure for U20C C33G: 0; for C7G U79A: 0.123.

Take C24A G81C: the self-cleavage came out at 0.17.

Take G31C C66U: the self-cleavage is 0.292.

As to G31C C66G, the self-cleavage came out at 0.443. The same measure for G28U C63G: 0.262. In the case of C32G G73A, the self-cleavage came to 0.0615. Consider C30G A42G, for which the self-cleavage worked out at 0.0415. For the variant G2C C14A, the self-cleavage came to 0.0615. Consider G5A C21U, for which the self-cleavage came out at 0.163. For G11A G82U, the self-cleavage stood at 0.0744. With C19U G54U, the self-cleavage worked out at 0.174.

G34C G67A: the self-cleavage is 0.211. In the case of G17U C64G, the self-cleavage worked out at 0.495. Take G6C U69G: the self-cleavage turned out to be 0.166. Consider A51C C61U, for which the self-cleavage came out at 0.914. The same measure for A51U G59A: 0.889. With C4G G34U, the self-cleavage worked out at 0.864. The same measure for U23G C62G: 0.453; for A16U U69G: 1.16.

In the case of G35U A77C, the self-cleavage was determined as 0.0875. Regarding U23C G31A, the self-cleavage was found to be 0.266. Take C19U G29U: the self-cleavage came out at 0.153. As to C62U A78C, the self-cleavage was 0.0936. The same measure for C24U A83G: 0.394; for G11A C14U: 0.277; for U47G U69G: 0.776. For the variant C7G G81U, the self-cleavage was 0.0594. As to C22G C26U, the self-cleavage amounted to 0.208. For the variant U47C U60A, the self-cleavage is 0.987.

For C15U C18U, the self-cleavage was 0.44. With C26U C49A the figure was 1.11. Consider G2U G74A, for which the self-cleavage stood at 0.0163.

As to C58G G73C, the self-cleavage is 0.582.

Consider G31C C61G, for which the self-cleavage turned out to be 0.259. The same measure for C4A C48A: 0.225. For G1U G80A, the self-cleavage is 0.355. On to C15A U37C, for which the self-cleavage turned out to be 0.665.

In the case of C4G G31C, the self-cleavage amounted to 0.108. As for C21G G82A, the self-cleavage amounted to 0.101. With G2C G31A, the self-cleavage was found to be 0.0382. On to A78G U79A, for which the self-cleavage was found to be 0.317. For the variant G28A C63U, the self-cleavage is 0.107. Regarding U46C C75A, the self-cleavage came to 0.0536.

Regarding G35C C36G, the self-cleavage is 0.0978. As for G35C C61U, the self-cleavage came out at 0.188. For G10C A45U, the self-cleavage came out at 1.11. With C19A C57A, the self-cleavage worked out at 0.0801. Regarding C18G A87U, the self-cleavage amounted to 0.154. Take G1U G38U: the self-cleavage stood at 0.295. Regarding A43C G73A, the self-cleavage came to 0.407. The same measure for G29A C30G: 0.0415.

For G10U C57G, the self-cleavage is 0.587.

A45C U79A: the self-cleavage came to 0.208.

On to U65G A78G, for which the self-cleavage worked out at 0.957. Regarding C18A A42G, the self-cleavage turned out to be 0.102.

On to G11C C49U, for which the self-cleavage came out at 0.332. The same measure for C7G A8U: 0.104; for G34C G39A: 0.0536; for C3A A87C: 0.515. As for C57A G74C, the self-cleavage is 0.108. With C15A G35A the figure was 0.405.

Source of the values: the RNAGym collection of RNA variant scans (doi:10.7554/elife.80360).
